# Reference: FireProtDB (doi:10.1021/bi001900v)
# Several values for one entry are separate records, joined by “and”; a condition that tells them apart may be missing. Equal values may be shown once.
# Conditions: Dickeya chrysanthemi, reversible: yes, whole UniProt chain shown; for Tm / unfolding enthalpy (calorimetric) / unfolding enthalpy (van 't Hoff): Thermal, DSC; for denaturant m value / denaturant midpoint (higher = more stable) / unfolding free energy: 25 °C, GdnHCl
# [1] = pH 5, CD, Sodium phosphate 0.1 M, sodium chloride 150 mM
# [2] = pH 5, CD, Sodium phosphate buffer, NaCl
# [3] = pH 5, Fluorescence, Sodium phosphate 0.1 M, sodium chloride 150 mM
# [4] = pH 5, fluorescence, Sodium phosphate buffer, NaCl
# [5] = pH 7, CD, Sodium phosphate 0.1 M, sodium chloride 150 mM
# [6] = pH 7, CD, Sodium phosphate buffer, NaCl
# [7] = pH 7, Fluorescence, Sodium phosphate 0.1 M, sodium chloride 150 mM
protein,measurement,setting,value
"Pectate lyase C wild type, P11073 (protein) MKSLITPITAGLLLALSQPLLAATDTGGYAATAGGNVTGAVSKTATSMQDIVNIIDAARLDANGKKVKGGAYPLVITYTGNEDSLINAAAANICGQWSKDPRGVEIKEFTKGITIIGANGSSANFGIWIKKSSDVVVQNMRIGYLPGGAKDGDMIRVDDSPNVWVDHNELFAANHECDGTPDNDTTFESAVDIKGASNTVTVSYNYIHGVKKVGLDGSSSSDTGRNITYHHNYYNDVNARLPLQRGGLVHAYNNLYTNITGSGLNVRQNGQALIENNWFEKAINPVTSRYDGKNFGTWVLKGNNITKPADFSTYSITWTADTKPYVNADSWTSTGTFPTVAYNYSPVSAQCVKDKLPGYAGVGKNLATLTSTACK",Tm,pH 4,56.5 °C
same,unfolding enthalpy (calorimetric),pH 4,256 kcal/mol
same,unfolding enthalpy (van 't Hoff),pH 4,174 kcal/mol
same,denaturant m value,[1],15.7 kcal/mol/M
same,denaturant midpoint (higher = more stable),[1],0.95 M
same,unfolding free energy,[1],14.9 kcal/mol
same,denaturant m value,[2],12.5 kcal/mol/M and 15.7 kcal/mol/M
same,denaturant midpoint (higher = more stable),[2],0.97 M
same,unfolding free energy,[2],14.9 kcal/mol
same,denaturant m value,[3],14.5 kcal/mol/M
same,denaturant midpoint (higher = more stable),[3],0.96 M
same,unfolding free energy,[3],14 kcal/mol
same,denaturant m value,[4],14.5 kcal/mol/M
same,denaturant midpoint (higher = more stable),[4],0.96 M
same,unfolding free energy,[4],14 kcal/mol
same,Tm,pH 5,59.8 °C
same,unfolding enthalpy (calorimetric),pH 5,270 kcal/mol
same,unfolding enthalpy (van 't Hoff),pH 5,181 kcal/mol
same,Tm,pH 6,56.5 °C
same,unfolding enthalpy (calorimetric),pH 6,255 kcal/mol
same,unfolding enthalpy (van 't Hoff),pH 6,203 kcal/mol
same,denaturant m value,[5],12.2 kcal/mol/M and 11.8 kcal/mol/M
same,denaturant midpoint (higher = more stable),[5],0.99 M and 0.98 M
same,unfolding free energy,[5],12.1 kcal/mol and 11.6 kcal/mol
same,denaturant m value,[6],12.2 kcal/mol/M and 11.8 kcal/mol/M
same,denaturant midpoint (higher = more stable),[6],0.99 M and 0.98 M
same,unfolding free energy,[6],12.1 kcal/mol and 11.6 kcal/mol
same,denaturant m value,[7],13 kcal/mol/M
same,denaturant midpoint (higher = more stable),[7],1 M
same,unfolding free energy,[7],13 kcal/mol
same,Tm,pH 7,51.2 °C
same,unfolding enthalpy (calorimetric),pH 7,240 kcal/mol
same,unfolding enthalpy (van 't Hoff),pH 7,219 kcal/mol
same,Tm,pH 8,46.5 °C
same,unfolding enthalpy (calorimetric),pH 8,235 kcal/mol
same,unfolding enthalpy (van 't Hoff),pH 8,201 kcal/mol
